Test results reported in publication PMC11617674, “The activity of the ribonucleotide monophosphatase UmpH is controlled by interaction with the GlnK signaling protein in Escherichia coli” (The Journal of Biological Chemistry, 2024).

Substrate: O=c1ccn([C@@H]2O[C@H](COP(=O)(O)O)[C@@H](O)[C@H]2O)c(=O)[nH]1
Assay: continuous phosphate release, EnzChek (MESG/purine nucleoside phosphorylase), A360, Michaelis-Menten fit
Format: biochemical, Escherichia coli
Settings: no GlnK, no effectors, 20 mM Hepes pH 7.4, 50 mM KCl, 5 mM MgCl2, 2 mM NAG, 2 mM DTT, 25 °C

B1: UmpH (Escherichia coli K-12) (protein)
chain: MTIKNVICDIDGVLMHDNVAVPGAAEFLHGIMDKGLPLVLLTNYPSQTGQDLANRFATAGVDVPDSVFYTSAMATADFLRRQEGKKAYVVGEGALIHELYKAGFTITDVNPDFVIVGETRSYNWDMMHKAAYFVANGARFIATNPDTHGRGFYPACGALCAGIEKISGRKPFYVGKPSPWIIRAALNKMQAHSEETVIVGDNLRTDILAGFQAGLETILVLSGVSSLDDIDSMPFRPSWIYPSVAEIDVI
notes: untagged; synthetic umpH gene in pET29a, expressed in E. coli BL21 (λDE3); band approximately 30 kDa
- Km: 278 ± 27 µM
